One test deals with ATP5B protein (Homo sapiens, UniProt P06576). Put plainly: SPR binding ability test. Conditions: ATP5B on CM5 chip, flow rate 50 μl/min, relative to control shortened sequence (SEQ ID NO: 12). The method, then: In order to evaluate substitutable residues within a sequence, an SPR (surface plasma resonance) test was conducted. Specifically, the ATP5B protein was conjugated to a CM5 chip by amine-conjugation, and then the contact of each test substance was observed under the condition of a flow rate of 50 μl/min, and the refractive index was measured. Thereafter, by converting each binding unit, the binding ability was compared and evaluated. […] A decrease of 10% or more in binding ability was considered to indicate a negative effect of the substitution.
Sequence of ATP5B protein (P06576 48-529, species assumed): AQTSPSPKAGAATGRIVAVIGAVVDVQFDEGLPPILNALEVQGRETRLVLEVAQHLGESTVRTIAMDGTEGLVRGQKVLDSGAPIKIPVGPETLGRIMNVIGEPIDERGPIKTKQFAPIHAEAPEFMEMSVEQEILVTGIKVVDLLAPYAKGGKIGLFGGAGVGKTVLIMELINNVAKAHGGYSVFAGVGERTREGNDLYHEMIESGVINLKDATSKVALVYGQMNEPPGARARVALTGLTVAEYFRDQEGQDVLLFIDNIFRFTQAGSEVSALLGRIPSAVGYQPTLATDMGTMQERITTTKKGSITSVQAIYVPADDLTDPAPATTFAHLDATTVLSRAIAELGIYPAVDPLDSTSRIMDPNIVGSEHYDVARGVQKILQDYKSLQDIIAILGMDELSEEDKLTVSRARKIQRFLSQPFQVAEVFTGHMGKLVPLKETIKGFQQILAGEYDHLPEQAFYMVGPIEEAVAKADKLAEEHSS
In general terms: Surface plasmon resonance follows binding to a sensor surface in real time, without labels.

Test [1] concerns MDA-MB-231 triple-negative breast cancer cell line. Description: MTT cell viability in breast cancer cells. In kind it is cell-based. Conditions: 1 μM, 48 hours; compared with Control (PBS), SEQ ID NO: 4 and SEQ ID NO: 5. On the procedure:
Next, the test substances, the fusion proteins (SEQ ID NO: 1, 2, 3, 7, 14, 15) and shortened sequences (SEQ ID NOs: 9, 10, 11, 12) were treated to MDA-MB-231 triple-negative breast cancer cell line at a concentration of 1 μM (Control: PBS) for 48 hours. Thereafter, the cells were washed with PBS once, and the cells were suspended in serum-free buffer. The MTT (3-[4,5-dimethylthiazol-2-yl]-2,5-diphenyltetrazolium bromide) substance was added thereto at 0.5 mg/ml and incubated at 37° C. for 2 hours. Then, they were washed with PBS once, and the cells were lysed with DMSO for 15 minutes. The solution was transferred to a new plate and the absorbance was measured at 590 nm using a microplate reader.

For the next test, the system named is MDA-MB-231 cell line. Description: Reactive oxygen generation (DCF-FA) in breast cancer cells. The format is cell-based. As to conditions: 1 μM, 24 hours; compared with Control and SEQ ID NO: 5. The method, then: In addition, in order to examine generation of reactive oxygen that plays an important role in cancer cell death, each test substance was treated to the MDA-MB-231 cell line at a concentration of 1 μM (Control: PBS) for 24 hours. Then, the cells were stained with DCF-FA and their fluorescence values were observed and compared at 485/535 nm.

For another test, the system named is cAMP (cyclic AMP). Put plainly: cAMP level (hTRF) in undifferentiated 3T3-L1 cells. In kind it is cell-based, mouse. As to conditions: undifferentiated 3T3-L1, 100 nM with 0.5 mM IBMX, 30 minutes; compared with Control and SEQ ID NO: 5. On the procedure: To observe the functionality of the fusion proteins related to lipid metabolism, the 3T3-L1 mouse pre-adipocyte cell line was used as the cell line itself (undifferentiated) or by differentiating into adipocytes. Differentiation into the adipocytes was performed by inducing primary differentiation for the 3T3-L1 cells in a medium containing DMEM, 10% FBS, 10 μg/ml insulin, 0.5 mM IBMX (3-Isobutyl-1-methylxanthine), and 1 μM dexamethasone for 2 days, and inducing secondary differentiation with a medium containing DMEM, 10% FBS, and 10 μg/ml insulin for the remaining 4 days. The adipocytes in which differentiation was finally completed were treated with the test substances at a concentration of 100 nM for 30 hours (Control: PBS) and then used for each test.
Next, changes in cAMP (cyclic AMP), a signaling mediator contributing to lipolysis and energy metabolism were evaluated in the undifferentiated adipocytes. The undifferentiated cells were treated with the test substances at a concentration of 100 nM (Control: PBS) with 0.5 mM IBMX for 30 minutes. Thereafter, the level of cAMP was evaluated by the hTRF (Homogeneous Time Resolved Fluorescence) method (using CAMP Gs dynamic kit from Cisbio). As a result of the measurement, it was confirmed that the level of cAMP was higher in the groups treated with the fusion proteins (SEQ ID NOs: 1, 2, 3, 7, 13, 14, 15) and shortened sequences (sequences 9, 10, 11) compared with the Control and His tag-wild-type substance (1-81) (SEQ ID NO: 5) (FIG. 7).
(In general: Cyclic AMP is a second messenger, typically raised through Gs and lowered through Gi signalling.)

The test system of test [2] is SH-SY5Y dopaminergic neuron cell line. Description: MTT cell viability of neuron cells under rotenone. As to conditions: 1 µM rotenone + 100 nM test substance, 24 hours; compared with rotenone alone. In kind it is cell-based. On the procedure:
(§1) The SH-SY5Y dopaminergic neuron cell line was treated with 1 µM of a toxic substance, rotenone and 100 nM of each test substance simultaneously. After 24 hours, the MTT cell viability or the effect of reducing reactive oxygen was observed.

The test system is the same in test [3]. Put plainly: Reactive oxygen in neuron cells under rotenone. Conditions: 1 µM rotenone + 100 nM test substance, 24 hours; compared with rotenone alone. In kind it is cell-based. On the procedure:
as §1

In the case of “SEQ ID NO: 24: Shortened substance (8-35) amino acid Ala substituted (17) VDRGAGSIRAAGGAFGKREQAEEERYFR”, the “Binding (%)” value with ATP5B protein is listed as 168.7%.
Turning to “SEQ ID NO: 35: Shortened substance (8-35) amino acid Ala substituted (31) VDRGAGSIREAGGAFGKREQAEEARYFR”, the “Binding (%)” value with ATP5B protein came out at 157.9%.
Still for that read-out and setting: the value for “SEQ ID NO: 17: Shortened substance (8-35) amino acid Ala substituted (9) VARGAGSIREAGGAFGKREQAEEERYFR” was 91.6%; that for “SEQ ID NO: 19: Shortened substance (8-35) amino acid Ala substituted (11) VDRAAGSIREAGGAFGKREQAEEERYFR” was 100.0%.
The same measure, in the same setting: as for “SEQ ID NO: 21: Shortened substance (8-35) amino acid Ala substituted (14) VDRGAGAIREAGGAFGKREQAEEERYFR”, the figure is 98.8%; as for “SEQ ID NO: 39: Shortened substance (8-35) amino acid Ala substituted (35) VDRGAGSIREAGGAFGKREQAEEERYFA”, 109.6%; as for “SEQ ID NO: 30: Shortened substance (8-35) amino acid Ala substituted (25) VDRGAGSIREAGGAFGKAEQAEEERYFR”, 85.2%.
As for “SEQ ID NO: 12: Synthetic peptide: Shortened substance (8-35) VDRGAGSIREAGGAFGKREQAEEERYFR (listed as Homo sapiens)”, in test [1], the “Cell viability (MTT)” value is listed as “significantly low”. The “Binding (%)” value with ATP5B protein came to 100.0%.
On to “SEQ ID NO: 33: Shortened substance (8-35) amino acid Ala substituted (29) VDRGAGSIREAGGAFGKREQAAEERYFR”, for which the “Binding (%)” value with ATP5B protein came to 96.7%.
On the same count and under the same terms, the value for “SEQ ID NO: 16: Shortened substance (8-35) amino acid Ala substituted (8) ADRGAGSIREAGGAFGKREQAEEERYFR” was 101.4%; that for “SEQ ID NO: 38: Shortened substance (8-35) amino acid Ala substituted (34) VDRGAGSIREAGGAFGKREQAEEERYAR” was 92.1%.
Still for that read-out and setting: the value for “SEQ ID NO: 18: Shortened substance (8-35) amino acid Ala substituted (10) VDAGAGSIREAGGAFGKREQAEEERYFR” was 104.2%.
Regarding “SEQ ID NO: 9: Synthetic peptide: Shortened substance (1-60) (GSDQSENVDRGAGSIREAGGAFGKREQAEEERYFRAQSREQLAALKKHHEEEIVHHKKEI; listed as Homo sapiens)”, the figures for the “Cell viability (MTT)” value in test [1] and in test [2] were “significantly low” and “significantly increased”, respectively. The Reactive oxygen generation result with MDA-MB-231 cell line is recorded as “generated higher”. The “Level of cAMP” value in the test on cAMP (cyclic AMP) was “higher”. Besides, the “Generation of reactive oxygen” value in test [3] is reported as “significantly inhibited”.
As for “SEQ ID NO: 28: Shortened substance (8-35) amino acid Ala substituted (23) VDRGAGSIREAGGAFAKREQAEEERYFR”, the “Binding (%)” value with ATP5B protein stood at 102.3%.
Still for that read-out and setting: as for “SEQ ID NO: 22: Shortened substance (8-35) amino acid Ala substituted (15) VDRGAGSAREAGGAFGKREQAEEERYFR”, the figure is 99.3%.
With “SEQ ID NO: 11: Synthetic peptide: Shortened amino acid modified substance (10-49; H49K mutation introduced) RGAGSIREAGGAFGKREQAEEERYFRAQSREQLAALKKHK”, the “Cell viability (MTT)” value is given as “significantly low” in test [1] and “significantly increased” in test [2]. The Reactive oxygen generation result in the test on MDA-MB-231 cell line is given as “generated higher”. The “Level of cAMP” value in the test on cAMP (cyclic AMP) is recorded as “higher”. Also, the “Generation of reactive oxygen” value in test [3] was “significantly inhibited”.
Taken in the same sequence, the figures for “SEQ ID NO: 10: Synthetic peptide: Shortened substance (1-47) GSDQSENVDRGAGSIREAGGAFGKREQAEEERYFRAQSREQLAALKK (listed as Homo sapiens)” were “significantly low”, “significantly increased”, “generated higher”, “higher” and “significantly inhibited”.
As to “SEQ ID NO: 34: Shortened substance (8-35) amino acid Ala substituted (30) VDRGAGSIREAGGAFGKREQAEAERYFR”, in the test with ATP5B protein, the “Binding (%)” value was 94.0%.
The same measure, in the same setting: the value for “SEQ ID NO: 37: Shortened substance (8-35) amino acid Ala substituted (33) VDRGAGSIREAGGAFGKREQAEEERAFR” was 145.8%.
Still for that read-out and setting: as for “SEQ ID NO: 27: Shortened substance (8-35) amino acid Ala substituted (22) VDRGAGSIREAGGAAGKREQAEEERYFR”, the figure is 94.0%; as for “SEQ ID NO: 20: Shortened substance (8-35) amino acid Ala substituted (13) VDRGAASIREAGGAFGKREQAEEERYFR”, 98.5%; as for “SEQ ID NO: 23: Shortened substance (8-35) amino acid Ala substituted (16) VDRGAGSIAEAGGAFGKREQAEEERYFR”, 97.0%.
On the same count and under the same terms, the value for “SEQ ID NO: 32: Shortened substance (8-35) amino acid Ala substituted (27) VDRGAGSIREAGGAFGKREAAEEERYFR” was 89.5%; that for “SEQ ID NO: 36: Shortened substance (8-35) amino acid Ala substituted (32) VDRGAGSIREAGGAFGKREQAEEEAYFR” was 426.0%; that for “SEQ ID NO: 26: Shortened substance (8-35) amino acid Ala substituted (20) VDRGAGSIREAGAAFGKREQAEEERYFR” was 68.0%.
With “SEQ ID NO: 25: Shortened substance (8-35) amino acid Ala substituted (19) VDRGAGSIREAAGAFGKREQAEEERYFR”, in the test with ATP5B protein, the “Binding (%)” value is 89.6%.
As to “SEQ ID NO: 31: Shortened substance (8-35) amino acid Ala substituted (26) VDRGAGSIREAGGAFGKRAQAEEERYFR”, the “Binding (%)” value with ATP5B protein turned out to be 94.1%.
Same read-out and setting: as for “SEQ ID NO: 29: Shortened substance (8-35) amino acid Ala substituted (24) VDRGAGSIREAGGAFGAREQAEEERYFR”, the figure is 100.5%.

The values above are taken from patent US20260274910A1, “SINGLE FUSION PROTEIN AND PHARMACEUTICAL COMPOSITION” (MEDI&GENE INC., priority 2023, published 2026).
